Consider 17 molecules from patent EP4725956A1, “MODIFIED POLYPEPTIDE AND USE THEREOF IN FIELD OF ANALGESIA” (Nanjing Anji Biotechnology Co., Ltd., priority 2023, dated 2024).

Positions of bridges follow the written chain, without caps; N, C: chain ends. Non-standard residues stand in square brackets, D forms with d. Residues, ends and D or L forms follow the SMILES beside them. No end group written: not given here. Bip = N[C@@H](Cc1ccc(-c2ccccc2)cc1)C(=O)O; Hyp = O=C(O)[C@@H]1C[C@@H](O)CN1; Nle = CCCC[C@H](N)C(=O)O; Orn = NCCC[C@H](N)C(=O)O; Aib = CC(C)(N)C(=O)O

Data set [1] is described as follows: In vitro plasma stability and predicted half-life (HPLC main peak area, Example 3). In kind it is in vitro ADME. Conditions: human plasma (EDTA anticoagulant), 37°C, sampled up to 24 h, predicted half-life calculated with Winolin. As to the method:
The modified peptides in this study were designed with non-natural amino acid substitutions at certain non-essential positions to enhance peptide stability and improve druggability. Peptides were dissolved in deionized water to 2 mg/mL, then diluted with acetonitrile to 1 mg/mL and filtered through an organic membrane. 200 µL of the filtrate was transferred to an LC vial as the peptide control. 300 µL of human plasma (comprising EDTA as anticoagulant, Nanjing Senbeijia Biotechnology Co., Ltd., Lot No. SBJ-P-HU011-100 mL) was mixed with 300 µL acetonitrile, centrifuged at 4°C and 12,000 rpm for 5 minutes. The supernatant was filtered through an organic membrane, and 200 µL of the filtrate was transferred to an LC vial as the plasma blank control. For peptide samples, 10 mg of peptide was weighed mixed with 5 mL of human plasma and vortexed thoroughly. 300 µL of peptide-containing plasma was mixed with 300 µL acetonitrile, centrifuged at 4°C and 12,000 rpm for 5 minutes, and the supernatant was filtered through an organic membrane. 200 µL of the filtrate was transferred to an LC vial as the 0 min sample. Peptide-containing plasma was incubated in a 37°C water bath, and samples at other time points were collected using the same procedure as the 0 min sample. For peptides AJ003 and AJ003-1, the sampling time points were 0 min, 5 min, 10 min, 20 min, 30 min, 1 h, 2 h, 4 h, 6 h, 10 h, 12 h, and 24 h. For modified peptides AJ003-34, AJ003-35, AJ003-36, AJ003-37, AJ003-38, AJ003-39, AJ003-40, AJ003-41, and AJ003-42, the time points were 0 min, 10 min, 30 min, 1 h, 4 h, 6 h, 10 h, 12 h, and 24 h. All peptide sample series were analyzed by HPLC, recording the changes in main peak areas over plasma incubation time. Predicted in vitro half-lives were calculated using the pharmacokinetic software Winolin. Due to the presence of tautomers, AJ003 peak areas were difficult to integrate accurately over time. AJ003-1 is an analog of AJ003 in which the threonine at position 5 is substituted with D-threonine; its sequence differs from AJ003 by only one amino acid configuration. […] The in vitro plasma half-lives of modified peptides AJ003-34, AJ003-35, AJ003-36, AJ003-37, AJ003-38, AJ003-39, AJ003-40, AJ003-41, and AJ003-42 were 61.9 h, 45.3 h, 65.3 h, 71.0 h, 26.7 h, 43.0 h, 84.0 h, 30.0 h, and 61.4 h, respectively.

Data set [2] concerns the target α7 nAChR (Homo sapiens, UniProt P36544). As to the kind of experiment: BLI (biolayer interferometry) affinity of peptides to α7 nAChR. In kind it is binding. Also noted: inferred from the 'similar' procedure on NTA sensors. Conditions: NTA sensor, α7 nAChR 20 µg/mL, peptide 1.372-1000 nM in PBS. An excerpt: BLI is a label-free technology that converts optical interference signals occurring on the surface of BLI biosensors into real-time response signals. By monitoring the molecular binding process in real time, the system determines association rate constants (ka or kon), dissociation rate constants (kd or koff), and initial binding rates, and calculates affinity (KD) by fitting analysis. Here are the specific procedures: NTA sensors (Sartorius) were placed in a pre-wetting tray, which was then positioned in a black 96-well plate with 200 µL PBS per well. The NTA sensors were pre-wetted for at least 15 minutes. The target protein α9 nAChR was diluted in PBS to 5 µg/mL, with 200 µL added per well. Test peptides were dissolved in PBS and serially diluted threefold, with concentrations from high to low as 1000 nM, 333.3 nM, 111.1 nM, 37.04 nM, 12.35 nM, 4.115 nM, and 1.372 nM, with an additional well with PBS only as a zeroconcentration control. After equilibrating the instrument baseline, the NTA sensor was used to immobilize the target protein α9 nAChR. Once immobilization was complete, the baseline was re-equilibrated, followed by a 5-minute association and a 5-minute dissociation phase. Affinity measurements of the test peptides were conducted sequentially using the above procedure. The procedure for measuring peptide affinity to α7 nAChR was similar, except that the α7 nAChR concentration was 20 µg/mL. Tables 2 and 3 show the BLI-determined affinities of alanine-scan peptide analogs with target proteins, which identified sites on the parent peptide suitable for modification. Subsequently, single-site non-natural amino acid substituted peptides were evaluated by BLI for target protein affinity. Finally, multi-site combinatorial modified peptides were measured for affinity by BLI, leading to the selection of high-affinity peptides for further screen and drug development potential. Table 2 Test Results for Affinity of Modified Peptides to α9 nAChR
On the technique in general: BLI is a label-free optical method that tracks binding on a fibre tip over time.

The subject of data set [3] is rat paclitaxel-induced chronic chemotherapy pain model. Put plainly: Rat paclitaxel chemotherapy pain model, same dose (Example 5). Particulars: 1 mg/kg s.c. In kind it is in vivo. As to the method:
Male SPF (Specific Pathogen Free) SD rats weighing 180-200 g (Shanghai Institute of Planned Parenthood Research, Experimental Animal Department) were used. On the day of model induction, rats were weighed, and baseline mechanical pain thresholds were measured. Animals with large differences in body weight or pain threshold were excluded, and the remaining rats were subjected to the experimental protocol. Paclitaxel powder was dissolved in olive oil to 1 mg/mL. Each rat received an intraperitoneal injection of 2 mg/kg per dose. Four injections were administered on days 1, 3, 5, and 7. Rats in the negative control or vehicle control group received injections of the solvent used to dissolve paclitaxel. […] The blank group in Table 4 represents rats without pain modeling, and the model group represents rats with pain modeling but no drug treatment. On days 1, 3, 5, and 12, drugs were administered at fixed times. On days 1, 3, and 5, mechanical pain thresholds of the right hind paw at the corresponding time were measured at 1 h, 2.5 h, 4 h, and 5.5 h after dosing using a blunt probe. On day 12, mechanical pain thresholds were measured at 4 h and 7 h after dosing. […] AJ003-36 and AJ003-40 were thus identified as candidate molecules for further study. Paclitaxel is a widely used small-molecule chemotherapy drug that, while effective against tumors, can induce neuropathic pain in many cancer patients due to neurotoxicity. The chronic chemotherapy pain model induced in male SD rats via multiple low-dose intraperitoneal injections of paclitaxel simulates clinical chemotherapy-induced neuropathic pain. Using this model, the analgesic effects of five modified peptides, the parent peptide AJ003, and the positive control pregabalin were evaluated. […] Table 4 Dosing Scheme for Screening Analgesic Activity of Selected Modified Peptides at the Same Dose in the Paclitaxel Chemotherapy Pain Model

The target of data set [4] is T1, α7 nAChR (human, UniProt P36544 23-233).
T1 construct: also called target protein α7 nAChR; α7 nicotinic acetylcholine receptor
As to the kind of experiment: BLI, α7 nAChR captured on NTA sensor, peptide in solution.

The target of data set [5] is T2, α9 nAChR (human, UniProt Q9UGM1 23-238).
T2 construct: also called target protein α9 nAChR; α9 nicotinic acetylcholine receptor
Put plainly: BLI, α9 nAChR captured on NTA sensor, peptide 1.372-1000 nM in solution.

T2 sequence (Q9UGM1 23-238 limits assumed): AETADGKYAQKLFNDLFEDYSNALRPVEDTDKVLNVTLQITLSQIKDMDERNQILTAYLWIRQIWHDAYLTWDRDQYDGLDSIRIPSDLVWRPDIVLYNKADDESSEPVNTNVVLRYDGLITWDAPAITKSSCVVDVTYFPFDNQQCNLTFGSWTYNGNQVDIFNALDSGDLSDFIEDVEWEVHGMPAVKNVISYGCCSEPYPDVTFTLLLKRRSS
T1 sequence (P36544 23-233 limits assumed): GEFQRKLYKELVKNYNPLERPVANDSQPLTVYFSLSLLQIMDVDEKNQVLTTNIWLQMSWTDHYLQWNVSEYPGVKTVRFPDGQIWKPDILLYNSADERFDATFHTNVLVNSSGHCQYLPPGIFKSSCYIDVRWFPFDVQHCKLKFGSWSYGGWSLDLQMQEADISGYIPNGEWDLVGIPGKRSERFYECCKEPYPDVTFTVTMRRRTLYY

The term half-life denotes the time in which the quantity being followed falls by half. The Kd is the equilibrium constant for the complex coming apart. Regarding `CCCC[C@H](NC(=O)[C@@H](NC(=O)[C@H]1CSSC[C@H](NC(=O)[C@H](CO)NC(=O)CN)C(=O)N[C@@H](CO)C(=O)N[C@H]([C@H](C)O)C(=O)N2C[C@H](O)C[C@H]2C(=O)N2C[C@H](O)C[C@H]2C(=O)N[C@@H](CO)C(=O)N1)C(C)C)C(=O)N[C@@H](Cc1ccc(-c2ccccc2)cc1)C(=O)N[C@@H](CCCN)C(N)=O` [AJ003-34, GSCS-(D-Thr)-Hyp-Hyp-S-(D-Cys)-V-Nle-Bip-Orn-NH2 (3,9 disulfide bond)] (H-GSCS[dT][Hyp][Hyp]S[dC]V[Nle][Bip][Orn]-NH2; disulfide 3-9), the half-life at 2 mg/mL in data set [1] was 61.9 h. In data set [2], this molecule returned a Kd of 360 nM. Besides, in data set [3], the “ranking among the five candidate modified peptides” value is listed as “top three analgesic candidates”. In the case of `CCCC[C@H](NC(=O)[C@@H](NC(=O)[C@H]1CSSC[C@H](NC(=O)[C@H](CO)NC(=O)CN)C(=O)N[C@@H](CO)C(=O)N[C@H]([C@H](C)O)C(=O)N2C[C@H](O)C[C@H]2C(=O)N2C[C@H](O)C[C@H]2C(=O)NC(C)(C)C(=O)N1)C(C)C)C(=O)N[C@@H](Cc1ccccc1)C(=O)N[C@@H](CCCN)C(N)=O` [AJ003-39, GSCS-(D-Thr)-Hyp-Hyp-Aib-(D-Cys)-V-Nle-F-Orn-NH2 (3,9 disulfide bond)] (H-GSCS[dT][Hyp][Hyp][Aib][dC]V[Nle]F[Orn]-NH2; disulfide 3-9), the half-life at 2 mg/mL in data set [1] is 43 h. For the same molecule, the Kd in data set [2] worked out at 410 nM.

Turning to `CCCC[C@H](NC(=O)[C@@H](NC(=O)[C@H]1CSSC[C@H](NC(=O)[C@H](CO)NC(=O)CN)C(=O)N[C@@H](CO)C(=O)N[C@H]([C@H](C)O)C(=O)N2C[C@H](O)C[C@H]2C(=O)N2C[C@H](O)C[C@H]2C(=O)N[C@@H](C)C(=O)N1)C(C)C)C(=O)N[C@@H](Cc1c[nH]c2ccccc12)C(=O)N[C@@H](CCCN)C(N)=O` [AJ003-41, GSCS-(D-Thr)-Hyp-Hyp-A-(D-Cys)-V-Nle-W-Orn-NH2 (3,9 disulfide bond)] (H-GSCS[dT][Hyp][Hyp]A[dC]V[Nle]W[Orn]-NH2; disulfide 3-9), the half-life at 2 mg/mL in data set [1] is 30 h. Binding in data set [2] was characterised by a dissociation constant (Kd) of 110 nM. As to `CCCC[C@H](NC(=O)[C@@H](NC(=O)[C@H]1CSSC[C@H](NC(=O)[C@H](CO)NC(=O)CN)C(=O)N[C@@H](CO)C(=O)N[C@H]([C@H](C)O)C(=O)N2C[C@H](O)C[C@H]2C(=O)N2C[C@H](O)C[C@H]2C(=O)NC(C)(C)C(=O)N1)C(C)C)C(=O)N[C@@H](Cc1c[nH]c2ccccc12)C(=O)N[C@@H](CCCN)C(N)=O` [AJ003-42, GSCS-(D-Thr)-Hyp-Hyp-Aib-(D-Cys)-V-Nle-W-Orn-NH2 (3,9 disulfide bond)] (H-GSCS[dT][Hyp][Hyp][Aib][dC]V[Nle]W[Orn]-NH2; disulfide 3-9), the half-life at 2 mg/mL in data set [1] is 61.4 h. The same molecule came in with a Kd in data set [2] of 21.2 nM.

B1: AJ003-24 (peptide)
peptide: GSCS[dT]PPG[dC]VLYS
modifications: disulfide 3-9
notes: Printed: GSCS-(D-Thr)-PPG-(D-Cys)-VLYS (3,9 disulfide bond)
Molecule B1 returned a Kd in data set [4] of 14000 nM.

B2: AJ003-1 (peptide)
peptide: GSCS[dT]PPS[dC]VLYS
modifications: disulfide 3-9
notes: Printed: GSCS-(D-Thr)-PPS-(D-Cys)-VLYS (3,9 disulfide bond)
With B2, the figures for the Kd in data set [5] and in data set [4] were 86 nM and 22 nM, respectively.

B3: AJ003-18 (peptide)
peptide: GSCS[dT]PPA[dC]VLYS
modifications: disulfide 3-9
notes: Printed: GSCS-(D-Thr)-PPA-(D-Cys)-VLYS (3,9 disulfide bond)
Take B3: in data set [5], the Kd amounted to 42.6 nM.

B4: AJ003-21 (peptide)
peptide: GSCS[dT]PPS[dC]VLAS
modifications: disulfide 3-9
notes: Printed: GSCS-(D-Thr)-PPS-(D-Cys)-VLAS (3,9 disulfide bond)
Turning to B4, the Kd in data set [5] was determined as 514 nM.

B5: AJ003-30 (peptide)
peptide: GSCS[dT]PPS[dC]VLWS
modifications: disulfide 3-9
notes: Printed: GSCS-(D-Thr)-PPS-(D-Cys)-VLWS (3,9 disulfide bond)
Turning to B5, the affinity in data set [4], expressed as Kd, was 27.8 nM.

B6: AJ003-26 (peptide)
peptide: GSCS[dT]PPS[dC]GLYS
modifications: disulfide 3-9
notes: Printed: GSCS-(D-Thr)-PPS-(D-Cys)-GLYS (3,9 disulfide bond)
Turning to B6, the Kd in data set [4] came to 6830 nM.

B7: AJ003-27 (peptide)
peptide: GSCS[dT]PPS[dC]VIYS
modifications: disulfide 3-9
notes: Printed: GSCS-(D-Thr)-PPS-(D-Cys)-VIYS (3,9 disulfide bond)
With B7, in data set [4], the Kd came to 323 nM.

B8: AJ003-20 (peptide)
peptide: GSCS[dT]PPS[dC]VAYS
modifications: disulfide 3-9
notes: Printed: GSCS-(D-Thr)-PPS-(D-Cys)-VAYS (3,9 disulfide bond)
In the case of B8, the Kd in data set [5] is 16.3 nM.

B9: AJ003-14 (peptide)
peptide: GSCA[dT]PPS[dC]VLYS
modifications: disulfide 3-9
notes: Printed: GSCA-(D-Thr)-PPS-(D-Cys)-VLYS (3,9 disulfide bond)
In data set [5], B9 returned a Kd of 13900 nM.

B10: AJ003-19 (peptide)
peptide: GSCS[dT]PPS[dC]ALYS
modifications: disulfide 3-9
notes: Printed: GSCS-(D-Thr)-PPS-(D-Cys)-ALYS (3,9 disulfide bond)
For B10, binding in data set [5] was characterised by a dissociation constant (Kd) of 317 nM.

B11: AJ003-13 (peptide)
peptide: GACS[dT]PPS[dC]VLYS
modifications: disulfide 3-9
notes: Printed: GACS-(D-Thr)-PPS-(D-Cys)-VLYS (3,9 disulfide bond)
Molecule B11 showed a Kd in data set [5] of 6690 nM.

B12: AJ003-22 (peptide)
peptide: GSCS[dT]PPS[dC]VLYA
modifications: disulfide 3-9
notes: Printed: GSCS-(D-Thr)-PPS-(D-Cys)-VLYA (3,9 disulfide bond)
In data set [5], B12 gave a Kd of 163 nM.

B13: AJ003-12 (peptide)
peptide: ASCS[dT]PPS[dC]VLYS
modifications: disulfide 3-9
notes: Printed: ASCS-(D-Thr)-PPS-(D-Cys)-VLYS (3,9 disulfide bond)
In turn, B13 had a Kd in data set [5] of 31600 nM.
